B1: Merlin (Homo sapiens), P35240-3 (parent)
chain: MAGAIASRMSFSSLKRKQPKTFTVRIVTMDAEMEFNCEMKWKGKDLFDLVCRTLGLRETWFFGLQYTIKDTVAWLKMDKKVLDHDVSKEEPVTFHFLAKFYPENAEEELVQEITQHLFFLQVKKQILDEKIYCPPEASVLLASYAVQAKYGDYDPSVHKRGFLAQEELLPKRVINLYQMTPEMWEERITAWYAEHRGRARDEAEMEYLKIAQDLEMYGVNYFAIRNKKGTELLLGVDALGLHIYDPENRLTPKISFPWNEIRNISYSDKEFTIKPLDKKIDVFKFNSSKLRVNKLILQLCIGNHDLFMRRRKADSLEVQQMKAQAREEKARKQMERQRLAREKQMREEAERTRDELERRLLQMKEEATMANEALMRSEETADLLAEKAQITEEEAKLLAQKAAEAEQEMQRIKATAIRTEEEKRLMEQKVLEAEVLALKMAEESERRAKEADQLKQDLQEAREAERRAKQKLLEIATKPTYPPMNPIPAPLPPDIPSFNLIGDSLSFDFKDTDMKRLSMEIEKEKVEYMEKSKHLQEQLNELKTEIEALKLKERETALDILHNENSDRGGSSKHNTIKKPQAQGRRPICI

Columns and labels:
[1] = variants of: B1; settings: with eif3c_human EIF3C
HGS, O14964-2 = variants of: B1; settings: with HGS
HGS, O14964-1 = variants of: B1; settings: with HGS
NF2, P35240-1 = variants of: B1; settings: with NF2, P35240-1
[2] = variants of: B1; settings: with sptb2_human SPTBN1, Q01082
Sequence of sptb2_human SPTBN1, Q01082 (Q01082 whole entry): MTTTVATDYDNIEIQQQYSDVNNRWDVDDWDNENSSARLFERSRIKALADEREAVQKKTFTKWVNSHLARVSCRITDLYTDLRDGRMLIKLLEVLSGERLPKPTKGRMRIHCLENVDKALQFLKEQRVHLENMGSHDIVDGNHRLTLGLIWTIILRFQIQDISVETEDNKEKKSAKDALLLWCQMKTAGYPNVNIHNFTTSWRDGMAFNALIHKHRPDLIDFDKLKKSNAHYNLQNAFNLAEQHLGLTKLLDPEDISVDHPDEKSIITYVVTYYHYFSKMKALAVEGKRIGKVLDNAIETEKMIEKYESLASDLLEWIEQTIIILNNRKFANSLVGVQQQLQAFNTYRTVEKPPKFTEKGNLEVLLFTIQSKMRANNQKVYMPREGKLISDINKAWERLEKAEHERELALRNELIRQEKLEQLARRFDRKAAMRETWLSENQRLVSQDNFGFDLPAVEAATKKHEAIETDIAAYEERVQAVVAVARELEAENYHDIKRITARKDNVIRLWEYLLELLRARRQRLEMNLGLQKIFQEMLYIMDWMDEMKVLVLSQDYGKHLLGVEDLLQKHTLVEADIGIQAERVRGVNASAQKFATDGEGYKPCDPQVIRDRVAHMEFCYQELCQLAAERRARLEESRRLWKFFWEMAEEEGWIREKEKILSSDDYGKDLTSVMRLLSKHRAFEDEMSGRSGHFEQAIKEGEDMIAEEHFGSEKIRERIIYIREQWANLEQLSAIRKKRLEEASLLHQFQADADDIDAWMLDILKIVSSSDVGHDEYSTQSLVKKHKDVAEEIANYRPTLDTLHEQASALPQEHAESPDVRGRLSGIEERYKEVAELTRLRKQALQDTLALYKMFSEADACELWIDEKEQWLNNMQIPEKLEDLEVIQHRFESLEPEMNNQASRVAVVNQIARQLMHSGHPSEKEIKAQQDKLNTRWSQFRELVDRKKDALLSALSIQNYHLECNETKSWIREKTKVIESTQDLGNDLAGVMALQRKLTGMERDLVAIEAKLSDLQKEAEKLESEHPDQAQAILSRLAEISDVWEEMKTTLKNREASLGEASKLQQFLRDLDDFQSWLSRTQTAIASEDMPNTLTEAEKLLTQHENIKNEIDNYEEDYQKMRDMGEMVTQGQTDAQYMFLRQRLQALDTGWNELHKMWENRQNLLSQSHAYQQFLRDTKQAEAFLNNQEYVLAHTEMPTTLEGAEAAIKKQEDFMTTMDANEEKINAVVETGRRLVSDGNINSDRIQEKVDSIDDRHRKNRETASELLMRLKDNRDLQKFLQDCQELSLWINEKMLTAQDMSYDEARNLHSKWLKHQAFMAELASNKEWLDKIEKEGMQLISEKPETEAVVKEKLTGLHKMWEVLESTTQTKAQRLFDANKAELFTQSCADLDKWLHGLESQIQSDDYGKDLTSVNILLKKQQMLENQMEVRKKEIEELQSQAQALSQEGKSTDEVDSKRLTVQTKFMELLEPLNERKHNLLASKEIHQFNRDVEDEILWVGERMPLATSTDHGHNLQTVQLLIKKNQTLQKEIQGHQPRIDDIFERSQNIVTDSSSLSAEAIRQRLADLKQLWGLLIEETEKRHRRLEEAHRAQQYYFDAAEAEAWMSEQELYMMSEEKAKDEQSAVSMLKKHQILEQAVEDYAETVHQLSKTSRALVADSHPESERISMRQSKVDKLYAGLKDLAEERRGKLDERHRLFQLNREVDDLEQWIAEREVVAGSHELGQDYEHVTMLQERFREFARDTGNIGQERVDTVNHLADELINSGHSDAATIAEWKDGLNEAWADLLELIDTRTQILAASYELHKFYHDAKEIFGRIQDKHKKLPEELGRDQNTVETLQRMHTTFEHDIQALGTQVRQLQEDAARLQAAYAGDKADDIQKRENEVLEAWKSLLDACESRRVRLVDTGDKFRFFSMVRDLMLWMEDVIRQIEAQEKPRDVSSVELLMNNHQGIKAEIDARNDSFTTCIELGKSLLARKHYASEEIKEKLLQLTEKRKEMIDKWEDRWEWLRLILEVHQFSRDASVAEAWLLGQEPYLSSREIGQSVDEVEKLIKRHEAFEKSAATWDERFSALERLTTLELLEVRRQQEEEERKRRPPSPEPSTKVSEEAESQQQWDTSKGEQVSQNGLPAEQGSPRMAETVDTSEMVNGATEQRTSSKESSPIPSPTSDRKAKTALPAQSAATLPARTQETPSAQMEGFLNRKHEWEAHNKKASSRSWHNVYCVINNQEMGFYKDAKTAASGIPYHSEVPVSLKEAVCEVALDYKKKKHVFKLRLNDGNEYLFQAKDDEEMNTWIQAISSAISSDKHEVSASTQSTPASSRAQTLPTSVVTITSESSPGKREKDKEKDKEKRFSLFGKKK

Sequence of HGS, O14964-2 (O14964 other isoform, or with tags, fused parts or gaps): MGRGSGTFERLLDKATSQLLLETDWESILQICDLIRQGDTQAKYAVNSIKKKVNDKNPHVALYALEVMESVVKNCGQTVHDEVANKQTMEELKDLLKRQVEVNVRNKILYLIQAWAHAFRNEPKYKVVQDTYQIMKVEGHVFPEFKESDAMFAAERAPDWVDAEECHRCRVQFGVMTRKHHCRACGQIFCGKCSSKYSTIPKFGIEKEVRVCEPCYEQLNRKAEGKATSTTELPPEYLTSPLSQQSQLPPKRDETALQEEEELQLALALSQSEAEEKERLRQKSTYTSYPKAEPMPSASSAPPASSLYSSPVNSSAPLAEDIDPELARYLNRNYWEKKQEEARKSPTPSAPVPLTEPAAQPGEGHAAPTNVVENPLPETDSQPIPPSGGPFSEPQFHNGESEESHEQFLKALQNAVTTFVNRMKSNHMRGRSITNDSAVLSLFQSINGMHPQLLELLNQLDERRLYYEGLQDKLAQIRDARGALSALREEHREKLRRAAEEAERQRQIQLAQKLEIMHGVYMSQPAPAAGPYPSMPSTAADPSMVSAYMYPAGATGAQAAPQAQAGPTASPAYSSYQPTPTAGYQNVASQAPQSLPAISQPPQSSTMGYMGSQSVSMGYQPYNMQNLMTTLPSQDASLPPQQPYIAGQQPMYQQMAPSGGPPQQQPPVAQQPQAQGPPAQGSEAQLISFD
Sequence of HGS, O14964-1 (O14964 whole entry): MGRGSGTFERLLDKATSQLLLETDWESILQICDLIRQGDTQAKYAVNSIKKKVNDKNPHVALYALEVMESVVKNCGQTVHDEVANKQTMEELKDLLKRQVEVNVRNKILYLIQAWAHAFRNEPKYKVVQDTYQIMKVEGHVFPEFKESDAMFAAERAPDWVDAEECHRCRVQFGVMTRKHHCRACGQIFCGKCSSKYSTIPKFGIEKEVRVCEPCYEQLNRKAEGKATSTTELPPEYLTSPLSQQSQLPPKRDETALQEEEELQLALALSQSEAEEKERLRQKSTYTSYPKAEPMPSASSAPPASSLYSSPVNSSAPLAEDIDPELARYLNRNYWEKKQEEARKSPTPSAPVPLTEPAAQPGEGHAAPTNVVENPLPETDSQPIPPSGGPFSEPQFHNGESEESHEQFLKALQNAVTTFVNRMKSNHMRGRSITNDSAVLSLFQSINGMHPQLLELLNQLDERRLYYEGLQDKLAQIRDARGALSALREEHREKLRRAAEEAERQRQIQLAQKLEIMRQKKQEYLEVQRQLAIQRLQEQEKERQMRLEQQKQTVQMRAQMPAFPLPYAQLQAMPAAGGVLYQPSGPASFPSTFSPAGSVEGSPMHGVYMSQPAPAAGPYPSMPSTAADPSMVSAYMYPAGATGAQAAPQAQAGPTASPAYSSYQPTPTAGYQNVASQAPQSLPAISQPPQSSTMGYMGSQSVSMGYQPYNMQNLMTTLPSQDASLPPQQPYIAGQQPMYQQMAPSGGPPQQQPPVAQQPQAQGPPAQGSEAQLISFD

Variant	effect of a mutation on the interaction [1]	effect of a mutation on the interaction (HGS, O14964-2)	effect of a mutation on the interaction (HGS, O14964-1)	effect of a mutation on the interaction (NF2, P35240-1)	effect of a mutation on the interaction [2]
N220Y	with no effect	increasing interaction strength	increasing interaction strength	with no effect	increasing interaction strength
L46R	disrupting interaction strength	decreasing interaction strength	decreasing interaction strength	disrupting interaction strength	disrupting interaction strength
G197C	with no effect	with no effect	with no effect	increasing interaction strength	decreasing interaction strength
V219M	with no effect	with no effect	increasing interaction strength	with no effect	increasing interaction strength
W41C	with no effect	with no effect	with no effect	decreasing interaction strength	increasing interaction strength

Next, values leading:

effect of a mutation on the interaction [1]	effect of a mutation on the interaction (HGS, O14964-2)	effect of a mutation on the interaction (HGS, O14964-1)	effect of a mutation on the interaction (NF2, P35240-1)	effect of a mutation on the interaction [2]	Variant
decreasing interaction strength	increasing interaction strength	increasing interaction strength	with no effect	increasing interaction strength	I273F
increasing interaction strength	with no effect	increasing interaction strength	decreasing interaction strength	decreasing interaction strength	T352M
increasing interaction strength	disrupting interaction strength	disrupting interaction strength	decreasing interaction strength	decreasing interaction strength	L360P
increasing interaction strength	disrupting interaction strength	disrupting interaction strength	decreasing interaction strength	disrupting interaction strength	Q538P
disrupting interaction strength	disrupting interaction strength	disrupting interaction strength	decreasing interaction strength	disrupting interaction strength	K364I
disrupting interaction strength	disrupting interaction strength	disrupting interaction strength	decreasing interaction strength	disrupting interaction strength	L535P

Reference: IntAct's records for PubMed 11779178
